Measurements as given in patent US20210292414A1 (H LUNDBECK A S, published 2021).
Substitutions are numbered along the chain they refer to.

T1: Sortilin SORTECDBAP_hB45678 (human/tetraodon chimera)
T1 construct: Shuffle construct: chimeric human/tetraodon Sortilin ECD with BAP tag
T1 chain: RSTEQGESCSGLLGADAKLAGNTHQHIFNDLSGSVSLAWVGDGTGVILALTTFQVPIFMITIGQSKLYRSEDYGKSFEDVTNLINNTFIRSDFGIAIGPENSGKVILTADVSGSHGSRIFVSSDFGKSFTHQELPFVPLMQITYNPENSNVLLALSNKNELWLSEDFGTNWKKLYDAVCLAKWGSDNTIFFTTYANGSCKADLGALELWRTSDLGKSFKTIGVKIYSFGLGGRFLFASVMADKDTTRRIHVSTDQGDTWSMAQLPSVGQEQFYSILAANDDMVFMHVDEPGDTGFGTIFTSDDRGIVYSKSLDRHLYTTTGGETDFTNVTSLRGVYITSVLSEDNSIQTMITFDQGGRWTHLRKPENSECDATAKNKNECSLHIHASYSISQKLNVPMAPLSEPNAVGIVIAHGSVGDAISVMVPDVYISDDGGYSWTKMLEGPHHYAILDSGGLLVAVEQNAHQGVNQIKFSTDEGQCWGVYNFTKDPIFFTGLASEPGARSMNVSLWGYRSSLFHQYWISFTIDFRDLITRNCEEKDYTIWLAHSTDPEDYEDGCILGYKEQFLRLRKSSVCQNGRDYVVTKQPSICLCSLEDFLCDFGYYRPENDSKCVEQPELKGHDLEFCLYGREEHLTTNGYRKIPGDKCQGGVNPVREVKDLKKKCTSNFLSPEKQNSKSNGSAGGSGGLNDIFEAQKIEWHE

T2: Sortilin SORTECDBAP_hB06-10 (human/tetraodon chimera)
T2 construct: Shuffle construct: chimeric human/tetraodon Sortilin ECD with BAP tag
T2 chain: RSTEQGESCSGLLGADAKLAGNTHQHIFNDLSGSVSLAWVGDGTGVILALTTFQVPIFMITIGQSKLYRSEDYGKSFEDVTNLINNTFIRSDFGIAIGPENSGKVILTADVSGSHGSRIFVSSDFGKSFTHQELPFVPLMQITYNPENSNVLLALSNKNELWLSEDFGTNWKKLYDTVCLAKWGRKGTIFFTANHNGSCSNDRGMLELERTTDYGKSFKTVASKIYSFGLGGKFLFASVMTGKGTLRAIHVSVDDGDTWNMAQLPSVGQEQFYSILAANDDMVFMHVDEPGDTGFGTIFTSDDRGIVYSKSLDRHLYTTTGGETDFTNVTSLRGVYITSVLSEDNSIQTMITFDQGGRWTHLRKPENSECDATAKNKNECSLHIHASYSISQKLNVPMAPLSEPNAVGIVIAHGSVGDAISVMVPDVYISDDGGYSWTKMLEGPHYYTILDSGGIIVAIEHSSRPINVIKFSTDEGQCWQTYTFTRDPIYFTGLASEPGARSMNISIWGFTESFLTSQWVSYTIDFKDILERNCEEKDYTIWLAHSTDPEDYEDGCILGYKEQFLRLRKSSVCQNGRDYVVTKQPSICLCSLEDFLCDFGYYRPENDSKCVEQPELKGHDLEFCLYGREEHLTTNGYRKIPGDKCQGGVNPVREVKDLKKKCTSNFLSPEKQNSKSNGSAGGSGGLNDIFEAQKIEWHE

T3: hRim
T3 chimeric human/tetraodon Sortilin extracellular region, BAP tag: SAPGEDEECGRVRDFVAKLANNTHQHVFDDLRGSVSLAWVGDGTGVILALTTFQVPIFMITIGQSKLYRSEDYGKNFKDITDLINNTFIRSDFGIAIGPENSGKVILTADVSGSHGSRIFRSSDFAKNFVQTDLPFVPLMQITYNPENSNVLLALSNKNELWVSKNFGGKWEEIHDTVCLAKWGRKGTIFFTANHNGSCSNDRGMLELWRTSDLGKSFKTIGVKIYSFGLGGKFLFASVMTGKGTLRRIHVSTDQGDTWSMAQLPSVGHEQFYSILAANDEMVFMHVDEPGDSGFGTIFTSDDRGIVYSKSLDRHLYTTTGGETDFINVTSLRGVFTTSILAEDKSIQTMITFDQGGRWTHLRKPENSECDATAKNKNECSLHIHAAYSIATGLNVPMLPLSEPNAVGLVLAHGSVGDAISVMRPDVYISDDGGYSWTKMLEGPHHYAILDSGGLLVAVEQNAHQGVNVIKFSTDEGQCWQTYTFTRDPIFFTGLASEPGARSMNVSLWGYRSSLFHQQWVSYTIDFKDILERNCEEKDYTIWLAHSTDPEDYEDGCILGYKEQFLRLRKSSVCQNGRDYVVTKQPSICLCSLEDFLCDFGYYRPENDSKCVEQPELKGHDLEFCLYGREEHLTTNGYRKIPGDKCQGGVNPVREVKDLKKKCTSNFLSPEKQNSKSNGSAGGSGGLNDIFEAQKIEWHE

T4: hBack
T4 chimeric human/tetraodon Sortilin extracellular region, BAP tag: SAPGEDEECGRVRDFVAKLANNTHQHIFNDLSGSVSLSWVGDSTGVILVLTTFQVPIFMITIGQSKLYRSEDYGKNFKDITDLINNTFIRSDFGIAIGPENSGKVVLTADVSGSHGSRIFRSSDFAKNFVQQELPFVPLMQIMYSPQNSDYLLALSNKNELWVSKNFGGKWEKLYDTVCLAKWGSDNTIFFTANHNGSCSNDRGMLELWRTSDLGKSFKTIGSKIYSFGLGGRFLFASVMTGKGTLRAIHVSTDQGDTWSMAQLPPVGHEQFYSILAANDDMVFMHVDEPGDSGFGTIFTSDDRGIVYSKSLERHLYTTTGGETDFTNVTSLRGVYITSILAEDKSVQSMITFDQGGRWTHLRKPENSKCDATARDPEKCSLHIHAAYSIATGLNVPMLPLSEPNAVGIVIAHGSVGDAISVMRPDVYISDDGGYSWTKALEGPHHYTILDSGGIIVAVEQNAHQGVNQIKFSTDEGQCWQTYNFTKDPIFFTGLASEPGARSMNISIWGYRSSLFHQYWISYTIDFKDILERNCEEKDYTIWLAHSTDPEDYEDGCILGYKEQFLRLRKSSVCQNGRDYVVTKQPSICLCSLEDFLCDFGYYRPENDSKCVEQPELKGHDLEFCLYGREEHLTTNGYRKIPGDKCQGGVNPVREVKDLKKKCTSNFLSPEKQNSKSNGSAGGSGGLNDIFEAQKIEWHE

B1: Antibody 6003-381 (antibody, human IgG1, V domains shown)
VH: QVQLVESGGGVVQPGRSLRLSCAASGFTFSNYVMHWVRQAPGKGLEWVAAISYNGNNKYYADSVKGRFTISRDNSKNTLYLQMNSLRAEDTAVSYCAKGLNDAFDIWGQGTMVTVSS
VL: not shown
B2: Antibody 6003-030 (antibody, human IgG1, V domains shown)
VH: EVQVLESGGGLVQPGGSLRLSCAASGFTFSSYAMSWVRQAPGKGLEWVSTISGRGGNTYYADSVKGRFTISRDNSKNTLYLQMDSLRAEDTAVYYCAIIPSLYWYFDLWGRGTLVTVSS
VL: EIVLTQSPATLSLSPGERATLSCRASQSVSSYLAWYQQKPGQAPRLLIYDASNRATGIPARFSGSGSGTDFTLTISSLEPEDFAVYYCQQRSNWPLTFGGGTKVEIK
notes: Human antibody (HuMab); also called antibody 30; mAb30
B3: Antibody 6003-083 (antibody, human IgG1, V domains shown)
VH: B2 VH with V4L, N57S, D84N, I99V, P100A, S101T, L102M
VL: B2 VL with L96I, G100Q, K103R, V104L
B4: Antibody 6003-1286 (antibody, human IgG1, V domains shown)
VH: B2 VH with V4L, D84N, T91A, I98N, P100Y, L102H
VL: B2 VL with S30N
B5: Antibody 6003-028 (antibody, human IgG1, V domains shown)
VH: B2 VH with V4L, N57S, D84N, I98N, I99L, P100Y, L102N
VL: B2 VL with Y32F
B6: Antibody 6003-056 (antibody, human IgG1, V domains shown)
VH: B2 VH with A23V, S35H, T50A, N57S, D84N
VL: B2 VL with Y32F
B7: Antibody 6003-1277 (antibody, V domains shown)
VH: QVQLVQSGAEVKKPGASVKVSCKTSGYTFTHYGISWVRQAPGQGLEWMGWINTYNGNTKYAQKLQGRVTMTTDTSTSTAYMELRSLRSDDTAVYYCASLGRNFDYWGQGTLVTVSS
VL: not shown
B8: IgG1-6003-408 (antibody, V domains shown)
VH: EVQLVESGGGLVKPGGSLRLSCAASGFTFSSYSMNWVRQAPGKGLEWVSSISSSSSYIYYADSVKGRFTISRDNAKNSLYLQMNSLRAEDTAVYYCARRRIAAAGTGYGAFDIWGQGTMVTVSS
VL: ARQLTQSPSSLSASVGDRVTITCRASQGITSALAWYQQKPGKVPKLLIYDASSLESGVPSRFSGSGSGTDFTLTISSLQPEDFATYYCQQFNGYPMFSFGQGTKLEII
notes: also called Antibody 6003-408

Legend:
Assay in all cases: BLI (Octet384RED)
[1] = molecular target: T1, Sortilin SORTECDBAP_hB45678
[2] = molecular target: T2, Sortilin SORTECDBAP_hB06-10
[3] = molecular target: T3, hRim
[4] = molecular target: T4, hBack

| Binder | EC50 [1] [ng/mL] | EC50 [2] [ng/mL] | EC50 [3] [ng/mL] | EC50 [4] [ng/mL] |
| --- | --- | --- | --- | --- |
| B1 | 2 | 1.34 | 2.28 | 1.6 |
| B2 | 0.85 | 0.74 | 0.86 | 0.85 |
| B3 | 0.92 | 0.76 | 0.99 | 1.34 |
| B4 | 1.02 | 0.87 | 1.05 | 1.02 |
| B5 | 1.96 | 1.56 | 2.04 | 1.87 |
| B6 | 1.1 | 0.97 | 1.24 | 1.14 |
| B7 | 4.3 | 2.62 | 4.34 | 4.07 |
| B8 | 2.58 | 1.68 | 2.78 | 2.37 |
